Results taken from IntAct's records for PubMed 25888478.

B1: Protein interacting with Hsp90 1 (Saccharomyces cerevisiae), P38768 (parent)
chain: MADFLLRPIKQRHRNEDKYVSVDAADGSVSKIEPIADFVIKTKLLSANGPEKLQDGRKVFINVCHSPLVPKPEVDFNARIVFPLIIQNEWEIPIITSCYRMDHDKKGQECYVWDCCINSDCSRWICDDIQLREILVEWCLESCEIRDSVVLCRDRIAFPKMKKKGAELPALEVLNDELHQDYKAKMHKIIEEEAGDPMSILRGRNDDGDDNNDPDDGTLPPLFPIENKISGAKIEEIDKNEIAHRNLKQAPAPAPAPHEQQEDVPEYEVKMKRFKGAAYKLRILIENKAPNSKPDRFSPSYNFAENILYINGKLSIPLPRDIVVNAADIKIFHIRKERTLYIYI
partner: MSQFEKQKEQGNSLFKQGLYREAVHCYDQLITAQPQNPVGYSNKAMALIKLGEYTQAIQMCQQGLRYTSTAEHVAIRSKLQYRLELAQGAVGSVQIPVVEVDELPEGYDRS

Variants of: B1
Settings: with tah1_yeast TAH1, P25638

Question: With MADFLLRPIKQRHRNEDKYVSVDAADGSVSKIEPIADFVIKTKLLSANGPEKLQDGRKVFINVCHSPLVPKPEVDFNARIVFPLIIQNEWEIPIITSCYRMDHDKKGQECYVWDCCINSDCSRWICDDIQLREILVEWCLESCEIRDSVVLCRDRIAFPKMKKKGAELPALEVLNDELHQDYKAKMHKIIEEEAGDPMSILRGRNDDGDDNNDPDDGTLPPLFPIENKISGAKIEEIDKNEIAHRNLKQAPAPAPAPHEQQEDVPEYEVKMKRFKGAAYKLRILIENKAPNSKPDRFSPSYNFAESILYINGKLSIPLPRDIVVNAADIKIFHIRKERTLYIYI [N306S] as the variant, how does the “effect of a mutation on the interaction” value read?
Answer: The value was “disrupting interaction”.
